Assay [1] addresses T1, human ROR2 (human, UniProt Q01974 34-403, limits assumed). Description: SPR. The gist of the method: (§1)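 Binding of humanized anti-human ROR2 monoclonal antibodies to human ROR2 was measured by surface plasmon resonance. Affinity is given as the dissociation constant (Kd), in nM. The antibodies were produced by grafting murine complementarity-determining regions into human acceptor frameworks and converting the constant region to human IgG1.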
(Surface plasmon resonance follows binding to a sensor surface in real time, without labels.)

The target of assay [2] is T1, human ROR2. Nature of the assay: SPR. The gist of the method: as §1
The source holds these as a separate data set.

Assay [3] concerns the target recombinant ROR1 (Homo sapiens (Human), UniProt Q01973 30-406). Description: dot blot on nylon membrane, anti-human IgG-HRP.
In assay [4] the target is T2, recombinant mouse ROR2 (extracellular portion) (mouse, UniProt Q9Z138 34-403).
T2 construct: also called mROR2
Description: dot blot on nylon membrane, anti-human IgG-HRP.

For assay [5], the target named is T3, recombinant human ROR2 H349R (human, UniProt Q01974 34-403).
T3 construct: Human residue replaced with the mouse residue
Nature of the assay: dot blot on nylon membrane, anti-human IgG-HRP.

Assay [6] addresses recombinant human ROR2 D354E (human, UniProt Q01974 34-403). Description: dot blot on nylon membrane, anti-human IgG-HRP.
The target of assay [7] is T2, recombinant mouse ROR2 (extracellular …). Description: dot blot of arrayed recombinant proteins (key on the sheet).

Like-named read-outs stand apart in the source and are kept apart here.

T1 sequence (Q01974 34-403 limits assumed): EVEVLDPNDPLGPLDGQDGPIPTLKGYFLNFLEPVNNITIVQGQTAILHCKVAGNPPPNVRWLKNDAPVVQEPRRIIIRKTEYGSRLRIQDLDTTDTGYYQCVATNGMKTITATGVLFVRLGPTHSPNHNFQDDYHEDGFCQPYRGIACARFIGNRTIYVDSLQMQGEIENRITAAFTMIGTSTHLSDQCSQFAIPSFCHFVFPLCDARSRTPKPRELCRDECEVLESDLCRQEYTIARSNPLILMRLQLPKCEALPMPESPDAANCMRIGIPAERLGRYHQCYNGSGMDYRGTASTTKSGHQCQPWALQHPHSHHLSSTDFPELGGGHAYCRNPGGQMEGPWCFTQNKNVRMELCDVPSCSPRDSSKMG
Sequence of recombinant human ROR2 D354E (Q01974 34-403 D354E limits assumed): as the sequence (Q01974 34-403 limits assumed) above, with D321E counted along it
T3 sequence (Q01974 34-403 H349R limits assumed): as the sequence (Q01974 34-403 limits assumed) above, with H316R counted along it
Sequence of recombinant ROR1 (Q01973 30-406 limits assumed): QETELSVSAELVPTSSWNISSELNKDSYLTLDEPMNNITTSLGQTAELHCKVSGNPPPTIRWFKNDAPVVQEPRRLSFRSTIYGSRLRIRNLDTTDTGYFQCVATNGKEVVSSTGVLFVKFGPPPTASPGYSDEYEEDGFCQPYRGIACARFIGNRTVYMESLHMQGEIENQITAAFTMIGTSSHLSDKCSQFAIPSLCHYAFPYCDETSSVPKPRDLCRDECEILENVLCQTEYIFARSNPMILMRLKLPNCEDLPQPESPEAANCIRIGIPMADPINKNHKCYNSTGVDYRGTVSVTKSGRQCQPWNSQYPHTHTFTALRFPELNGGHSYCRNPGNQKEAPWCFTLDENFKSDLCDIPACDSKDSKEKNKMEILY
T2 sequence (Q9Z138 other isoform, or with tags, fused parts or gaps limits assumed): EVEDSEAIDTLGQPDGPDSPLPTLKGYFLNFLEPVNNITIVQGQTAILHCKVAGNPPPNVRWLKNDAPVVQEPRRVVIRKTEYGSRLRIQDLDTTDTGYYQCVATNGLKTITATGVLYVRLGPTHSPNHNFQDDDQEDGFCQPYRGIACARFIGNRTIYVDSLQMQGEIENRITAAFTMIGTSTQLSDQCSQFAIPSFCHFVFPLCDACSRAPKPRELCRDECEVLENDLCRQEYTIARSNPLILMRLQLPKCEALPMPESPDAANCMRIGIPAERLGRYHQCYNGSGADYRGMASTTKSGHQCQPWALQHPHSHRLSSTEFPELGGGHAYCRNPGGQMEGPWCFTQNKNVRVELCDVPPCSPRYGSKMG

B1: h6E6-057 (antibody, human IgG1, V domains shown)
VH: EVQLVESGGGLVKPGGSLRLSCAASGFTFSHYGVSWVRQAPGKGLEWVSTISSGGGYTHYVASVKGRFTISRDNAKNSLYLQMNSLRAEDTAVYYCARHPRDFSYALDYWGQGTTVTVSS
VL: EIVMTQSPATLSVSPGERATLSCKASQDVGHYVAWYQQKPGQAPRLLIYWASTRATGIPARFSGSGSGTEFTLTISSLQSEDFAVYYCQQYNIYPWAFGQGTKVEIK
notes: human IgG1; also called clone 57
Broadly, the Kd is the free concentration of one partner at which half of the binding sites on the other are occupied at equilibrium, for simple one-to-one binding. As for B1, the Kd in assay [1] and in assay [2] was 0.463 nM in each case. Moreover, the binding result in assay [3], in assay [4], in assay [5] and in assay [6] was “no binding” in each case.

B2: h6E6-116 (antibody, human IgG1, V domains shown)
VH: EVQLVESGGGLVKPGGSLRLSCAASGFTFSTYGVSWVRQAPGKGLEWVSTISSGGGYTHYAGSVKGRFTISRDNAKNSLYLQMNSLRAEDTAVYYCARHPRDFSYALDYWGQGTTVTVSS
VL: EIVMTQSPATLSVSPGERATLSCRASQDVGHYLAWYQQKPGQAPRLLIYWASTRATGIPARFSGSGSGTEFTLTISSLQSEDFAVYYCQQYNIYPWTFGQGTKVEIK
notes: human IgG1; Alexa647 conjugate in flow cytometry
For the molecule B2, the Kd in assay [1] and in assay [2] was 0.348 nM each time. Also, the binding result in assay [3], in assay [4], in assay [5] and in assay [6] was “no binding” in each case.

B3: h6E6-070 (antibody, human IgG1, V domains shown)
VH: EVQLVESGGGLVKPGGSLRLSCAASGFTFSQYGHSWVRQAPGKGLEWVSTISSGGGYTHYAHSVKGRFTISRDNAKNSLYLQMNSLRAEDTAVYYCARHPRDFSYANDYWGQGTTVTVSS
VL: EIVMTQSPATLSVSPGERATLSCRASQDVGHYLAWYQQKPGQAPRLLIYWASTRATGIPARFSGSGSGTEFTLTISSLQSEDFAVYYCQQYNIYPWTFGQGTKVEIK
notes: human IgG1; Alexa647 conjugate in flow cytometry; also called clone 70
Consider B3, for which the Kd in assay [1] and in assay [2] was 0.165 nM in each case. In addition, the binding result in assay [3], in assay [5], in assay [6] and in assay [7] was “no binding” throughout.

B4: h6E6-066 (antibody, human IgG1, V domains shown)
VH: EVQLVESGGGLVKPGGSLRLSCAASGFTFSAYGSSWVRQAPGKGLEWVSTISSGGGYTHYAPSVKGRFTISRDNAKNSLYLQMNSLRAEDTAVYYCARHPRDFSYAHDYWGQGTTVTVSS
VL: EIVMTQSPATLSVSPGERATLSCKASQDVGHYVAWYQQKPGQAPRLLIYWASTRHTGIPARFSGSGSGTEFTLTISSLQSEDFAVYYCQQYNIYPWTFGQGTKVEIK
notes: human IgG1; also called clone 66
As to B4, the equilibrium dissociation constant (Kd) in assay [1] and in assay [2] was 0.353 nM throughout. For the same molecule, the binding result in assay [3], in assay [4], in assay [5] and in assay [6] was “no binding” throughout.

B5: h6E6-107 (antibody, human IgG1, V domains shown)
VH: EVQLVESGGGLVKPGGSLRLSCAASGFTFSTYGASWVRQAPGKGLEWVSTISSGGGYTHYAPSVKGRFTISRDNAKNSLYLQMNSLRAEDTAVYYCARHPRDFSYALDYWGQGTTVTVSS
VL: EIVMTQSPATLSVSPGERATLSCKASQDVGHYVAWYQQKPGQAPRLLIYWASTRATGIPARFSGSGSGTEFTLTISSLQSEDFAVYYCQQYNIYPWTFGQGTKVEIK
notes: human IgG1; also called clone 107
Consider B5, for which the Kd in assay [1] and in assay [2] was 0.422 nM in each case. Moreover, the binding result in assay [3], in assay [4], in assay [5] and in assay [6] was “no binding” in each case.

B6: h6E6-068 (antibody, human IgG1, V domains shown)
VH: EVQLVESGGGLVKPGGSLRLSCAASGFTFSSYGISWVRQAPGKGLEWVSTISSGGGYTHYAHSVKGRFTISRDNAKNSLYLQMNSLRAEDTAVYYCARHPRDFSYALDYWGQGTTVTVSS
VL: EIVMTQSPATLSVSPGERATLSCKASQDVGHYLAWYQQKPGQAPRLLIYWASTRATGIPARFSGSGSGTEFTLTISSLQSEDFAVYYCQQYNIYPWTFGQGTKVEIK
notes: human IgG1; also called clone 68
Consider B6, for which the Kd in assay [1] and in assay [2] was 0.362 nM each time. Moreover, the binding result in assay [3], in assay [4], in assay [5] and in assay [6] was “no binding” each time.

B7: h6E6-072 (antibody, human IgG1, V domains shown)
VH: EVQLVESGGGLVKPGGSLRLSCAASGFTFSQYGHSWVRQAPGKGLEWVSTISSGGGYTHYADSVKGRFTISRDNAKNSLYLQMNSLRAEDTAVYYCARHPRDFSYAQDYWGQGTTVTVSS
VL: EIVMTQSPATLSVSPGERATLSCKASQDVGHYLAWYQQKPGQAPRLLIYWASTRHTGIPARFSGSGSGTEFTLTISSLQSEDFAVYYCQQYNIYPWTFGQGTKVEIK
notes: human IgG1; also called clone 72
As to B7, the Kd in assay [1] and in assay [2] was 0.38 nM throughout. Further, the binding result in assay [3], in assay [4], in assay [5] and in assay [6] was “no binding” throughout.

B8: h6E6-077 (antibody, human IgG1, V domains shown)
VH: EVQLVESGGGLVKPGGSLRLSCAASGFTFSHYGTSWVRQAPGKGLEWVSTISSGGGYTHYAPSVKGRFTISRDNAKNSLYLQMNSLRAEDTAVYYCARHPRDFSYAIDYWGQGTTVTVSS
VL: EIVMTQSPATLSVSPGERATLSCKASQDVGHYVAWYQQKPGQAPRLLIYWASTRATGIPARFSGSGSGTEFTLTISSLQSEDFAVYYCQQYNIYPWTFGQGTKVEIK
notes: human IgG1; also called clone 77
As to B8, the Kd in assay [1] and in assay [2] was 0.155 nM each time. Further, the binding result in assay [3], in assay [4], in assay [5] and in assay [6] was “no binding” throughout.

B9: h6E6-102 (antibody, human IgG1, V domains shown)
VH: EVQLVESGGGLVKPGGSLRLSCAASGFTFSKYGLSWVRQAPGKGLEWVSTISSGGGYTHYVESVKGRFTISRDNAKNSLYLQMNSLRAEDTAVYYCARHPRDFSYASDYWGQGTTVTVSS
VL: EIVMTQSPATLSVSPGERATLSCKASQDVGHYVAWYQQKPGQAPRLLIYWASTRATGIPARFSGSGSGTEFTLTISSLQSEDFAVYYCQQYNIYPWTFGQGTKVEIK
notes: human IgG1; also called clone 102
As to B9, the Kd in assay [1] and in assay [2] was 0.319 nM each time. For the same molecule, the binding result in assay [3], in assay [4], in assay [5] and in assay [6] was “no binding” each time.

Values taken from patent publication US20260209348A1 (University of California, published 2026).
